The target of this assay is acetylcholine receptor (Homo sapiens, UniProt P02708). The assay is described as follows: SPR binding affinity (RU) of optimized 5mer/6mer/7mer peptides, Examples 6-7. The conditions noted are these: SPR, peptides tested at 10 μM. The protocol:
Based on the frequencies of occurrence of the top 7 amino acids from Table 7 in Example 5, 600 peptides comprising these amino acids (top combinations) and those comprising the 13 less frequently occurring amino acids (bottom combinations) were synthesized for each series of 5mer, 6mer-1, and 6mer-2. The binding affinity of each sequence for the acetylcholine receptor was measured using Surface Plasmon Resonance (SPR) analysis method. The peptides were tested at a concentration of 10 μM. Additionally, the average binding affinities of the top and bottom combinations in each series are depicted in FIGS. 5-7.
Representative peptides identified in Example 6, two in each library, including 5mers (73, 311) and 6mers-1 (43, 210) and 6mers-2 (136, 233), were compared with the pre-optimized 6mer, 5mer-ND, and Synake.
Background: Surface plasmon resonance follows binding to a sensor surface in real time, without labels.

The mark [1] stands for this setting: 5mer Top sequence (top combinations).

Sequence of acetylcholine receptor (P02708 21-457): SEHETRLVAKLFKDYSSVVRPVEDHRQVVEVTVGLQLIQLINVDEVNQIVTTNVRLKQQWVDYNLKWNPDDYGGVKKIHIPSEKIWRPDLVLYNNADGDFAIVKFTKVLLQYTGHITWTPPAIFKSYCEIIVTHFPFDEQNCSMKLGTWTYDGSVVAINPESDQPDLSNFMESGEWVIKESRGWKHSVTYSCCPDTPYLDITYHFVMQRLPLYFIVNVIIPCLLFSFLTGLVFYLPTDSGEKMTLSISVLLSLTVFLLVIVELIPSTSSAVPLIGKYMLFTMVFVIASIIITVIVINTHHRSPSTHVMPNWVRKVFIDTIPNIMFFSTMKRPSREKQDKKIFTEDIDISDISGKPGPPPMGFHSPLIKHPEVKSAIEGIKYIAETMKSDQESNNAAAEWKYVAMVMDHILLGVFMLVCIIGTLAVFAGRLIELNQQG

With 5mer-414 (KVRCK), the Binding affinity (5mer Top sequence) is given as 71 Ru. The same measure, in the same setting: next, 5mer-415 (KVFLR): 77 Ru. On the same count and under the same terms, next, 5mer-416 (KLYLR): 67 Ru; 5mer-417 (KWLQK): 65 Ru; 5mer-418 (RWRTR): 53 Ru.

With 5mer-419 (RVYTR), the Binding affinity (5mer Top sequence) amounted to 67 Ru. Still for that read-out and setting: to 5mer-420 (KLFCR) belongs 84 Ru; to 5mer-421 (RVVYK), 68 Ru; to 5mer-422 (KWICK), 87 Ru. Still for that read-out and setting: next, 5mer-423 (RRQLK): 60 Ru; 5mer-424 (RVYLK): 87 Ru. For 5mer-425 (RGFYR), where the note is “5mer Top sequence”, the Binding affinity turned out to be 80 Ru. Take 5mer-426 (RRVSR): under “5mer Top sequence”, the Binding affinity came out at 57 Ru. For the substance 5mer-427 (RGLYR), the Binding affinity (5mer Top sequence) came out at 87 Ru. On the same count and under the same terms, to 5mer-428 (RQFLK) belongs 86 Ru; to 5mer-429 (KSQYK), 63 Ru; to 5mer-430 (KWRTK), 80 Ru. Same read-out and setting: next, 5mer-431 (KVQLK): 81 Ru; 5mer-432 (RQVRR): 52 Ru. With 5mer-433 (KWRCR), the Binding affinity (5mer Top sequence) was found to be 73 Ru. As for 5mer-434 (RVLQK), the Binding affinity (5mer Top sequence) amounted to 74 Ru.

As for 5mer-435 (KLRQR), the Binding affinity (5mer Top sequence) was determined as 69 Ru.

For 5mer-436 (RVFYK), the Binding affinity (5mer Top sequence) is reported as 60 Ru.

Regarding 5mer-437 (RVRLR), where the note is “5mer Top sequence”, the Binding affinity was found to be 50 Ru. Regarding 5mer-438 (RVRSR), the Binding affinity (5mer Top sequence) worked out at 76 Ru. The same measure, in the same setting: next, 5mer-439 (KRVTR): 65 Ru; 5mer-440 (RQVTK): 57 Ru. Same read-out and setting: next, 5mer-441 (KLIRK): 53 Ru; 5mer-442 (KVRLR): 61 Ru. On the same count and under the same terms, to 5mer-443 (RGFTK) belongs 80 Ru; to 5mer-444 (KQQYR), 65 Ru. With 5mer-445 (RLFTR), the Binding affinity (5mer Top sequence) is recorded as 77 Ru. On to 5mer-446 (RGLQK), for which, under “5mer Top sequence”, the Binding affinity worked out at 53 Ru.

5mer-447 (KGYYK): the Binding affinity (5mer Top sequence) came to 76 Ru.

Turning to 5mer-448 (RQIRK), the Binding affinity (5mer Top sequence) was 74 Ru. Same read-out and setting: to 5mer-449 (KGLYR) belongs 65 Ru; to 5mer-450 (RVIQK), 78 Ru; to 5mer-451 (RQVLK), 53 Ru.

Take 5mer-452 (RGVSK): the Binding affinity (5mer Top sequence) is 82 Ru. Same read-out and setting: next, 5mer-453 (KGVCR): 68 Ru. On the same count and under the same terms, next, 5mer-454 (RQVLR): 77 Ru. The same measure, in the same setting: next, 5mer-455 (RWLYK): 61 Ru; 5mer-456 (RLVCK): 52 Ru; 5mer-457 (RGQYK): 59 Ru. 5mer-458 (RRFLK): where the note is “5mer Top sequence”, the Binding affinity stood at 65 Ru. The same measure, in the same setting: next, 5mer-459 (RSQLR): 76 Ru; 5mer-460 (RLQQR): 74 Ru. Still for that read-out and setting: to 5mer-461 (KQLLK) belongs 74 Ru; to 5mer-462 (RWQSK), 69 Ru. Still for that read-out and setting: to 5mer-463 (KWYTK) belongs 52 Ru; to 5mer-464 (RGVTR), 57 Ru. For 5mer-465 (RWFRK), the Binding affinity (5mer Top sequence) is 57 Ru. The same measure, in the same setting: next, 5mer-466 (RRVRK): 53 Ru; 5mer-467 (RRIYR): 83 Ru; 5mer-468 (RWQCK): 54 Ru.

5mer-469 (KSRRR): the Binding affinity (5mer Top sequence) stood at 69 Ru. On the same count and under the same terms, next, 5mer-470 (KQRSK): 57 Ru; 5mer-471 (RGYLR): 69 Ru.

With 5mer-472 (RRYRK), the Binding affinity (5mer Top sequence) was 55 Ru. The same measure, in the same setting: next, 5mer-473 (RLVQR): 75 Ru; 5mer-474 (RQFLR): 80 Ru. Same read-out and setting: next, 5mer-475 (RRFCK): 56 Ru.

Regarding 5mer-476 (RSICK), the Binding affinity (5mer Top sequence) is reported as 70 Ru. Same read-out and setting: next, 5mer-477 (KGYSR): 58 Ru. The same measure, in the same setting: next, 5mer-478 (RVQTK): 75 Ru; 5mer-479 (RQYYK): 70 Ru; 5mer-480 (RWYLR): 75 Ru.

For 5mer-481 (KSYCK), for the setting “5mer Top sequence”, the Binding affinity is 78 Ru. On the same count and under the same terms, next, 5mer-482 (KQFCK): 75 Ru; 5mer-483 (RSISR): 51 Ru. As for 5mer-484 (RSFQK), the Binding affinity (5mer Top sequence) is given as 51 Ru. Still for that read-out and setting: to 5mer-485 (KRQRK) belongs 58 Ru; to 5mer-486 (RWLQR), 53 Ru; to 5mer-487 (RLVTK), 62 Ru. As for 5mer-488 (KVRSR), under “5mer Top sequence”, the Binding affinity is given as 58 Ru. Regarding 5mer-489 (KSYSR), the Binding affinity (5mer Top sequence) came out at 63 Ru. On the same count and under the same terms, next, 5mer-490 (RWLLK): 60 Ru; 5mer-491 (KQIRR): 81 Ru; 5mer-492 (RVVLR): 80 Ru. As for 5mer-493 (KSIRR), where the note is “5mer Top sequence”, the Binding affinity was 57 Ru.

In the case of 5mer-494 (RGFCK), the Binding affinity (5mer Top sequence) is recorded as 54 Ru. Consider 5mer-495 (KVVTK), for which the Binding affinity (5mer Top sequence) came out at 52 Ru.

Regarding 5mer-496 (KGIQK), the Binding affinity (5mer Top sequence) is 81 Ru. On the same count and under the same terms, next, 5mer-497 (KRRCR): 76 Ru. Regarding 5mer-498 (KLISK), the Binding affinity (5mer Top sequence) is listed as 53 Ru.

Consider 5mer-499 (RVLTK), for which the Binding affinity (5mer Top sequence) is given as 76 Ru. For 5mer-500 (KSLQK), for the setting “5mer Top sequence”, the Binding affinity worked out at 63 Ru. The same measure, in the same setting: next, 5mer-501 (KLQRK): 78 Ru; 5mer-502 (RRISR): 84 Ru; 5mer-503 (KRVSK): 61 Ru. The same measure, in the same setting: next, 5mer-504 (KQIQR): 72 Ru.

On to 5mer-505 (RQIYR), for which the Binding affinity (5mer Top sequence) is recorded as 71 Ru. Still for that read-out and setting: next, 5mer-506 (RGRLR): 51 Ru; 5mer-507 (KWVQK): 84 Ru. Still for that read-out and setting: to 5mer-508 (KGLQK) belongs 67 Ru. On to 5mer-509 (RVQRK), for which the Binding affinity (5mer Top sequence) is 61 Ru. The same measure, in the same setting: to 5mer-510 (RQLSK) belongs 71 Ru; to 5mer-511 (KSLSR), 56 Ru.

Turning to 5mer-512 (RLYLK), under setting [1], the Binding affinity is listed as 70 Ru. Still for that read-out and setting: to 5mer-513 (RWYYK) belongs 83 Ru. On to 5mer-514 (KLLLK), for which, under setting [1], the Binding affinity was 52 Ru. Same read-out and setting: next, 5mer-515 (RGQRK): 56 Ru. Same read-out and setting: to 5mer-516 (KWQTR) belongs 83 Ru. The same measure, in the same setting: next, 5mer-517 (KGYTR): 70 Ru.

Regarding 5mer-518 (RVYYR), under setting [1], the Binding affinity was determined as 87 Ru. Same read-out and setting: to 5mer-519 (RLYSK) belongs 72 Ru; to 5mer-520 (RVLLK), 86 Ru. Take 5mer-521 (KRFRK): the Binding affinity under setting [1] came to 78 Ru. The same measure, in the same setting: to 5mer-522 (RLVYR) belongs 78 Ru; to 5mer-523 (KQFQK), 84 Ru. For 5mer-524 (RRICR), under setting [1], the Binding affinity is 83 Ru. Same read-out and setting: next, 5mer-525 (KQRYK): 51 Ru; 5mer-526 (KQFSR): 54 Ru.

In the case of 5mer-527 (KSVQR), the Binding affinity under setting [1] was determined as 70 Ru.

With 5mer-528 (RVLLR), the Binding affinity under setting [1] worked out at 50 Ru. Still for that read-out and setting: next, 5mer-529 (RVQSR): 84 Ru; 5mer-530 (RWRRR): 80 Ru; 5mer-531 (KRQSR): 65 Ru.

Take 5mer-532 (KQICK): the Binding affinity under setting [1] was determined as 75 Ru. As to 5mer-533 (RLVYK), the Binding affinity under setting [1] amounted to 84 Ru. For 5mer-534 (RRQLR), the Binding affinity under setting [1] came out at 50 Ru. Turning to 5mer-535 (KSLLR), the Binding affinity under setting [1] is 70 Ru.

For the substance 5mer-536 (RLITK), the Binding affinity under setting [1] was found to be 78 Ru. Same read-out and setting: next, 5mer-537 (RLRLR): 59 Ru; 5mer-538 (KQQQR): 72 Ru. For 5mer-539 (RVVTR), the Binding affinity under setting [1] turned out to be 70 Ru. Still for that read-out and setting: next, 5mer-540 (RQFYR): 74 Ru. Still for that read-out and setting: next, 5mer-541 (KVFLK): 80 Ru; 5mer-542 (KRYTR): 85 Ru; 5mer-543 (RLRLK): 65 Ru. Still for that read-out and setting: next, 5mer-544 (RLQLR): 63 Ru; 5mer-545 (KGQYR): 80 Ru; 5mer-546 (KVVLK): 65 Ru. For the substance 5mer-547 (KQVTK), under setting [1], the Binding affinity is 77 Ru. Consider 5mer-548 (KWLCK), for which the Binding affinity under setting [1] was found to be 60 Ru. As to 5mer-549 (KWITK), the Binding affinity under setting [1] came out at 78 Ru.

For the origin of these results see patent US20250011363A1, “OPTIMIZED SHORTENED PEPTIDE THAT BINDS TO ACETYLCHOLINE RECEPTOR, AND USE THEREOF” (SKINMED CO., LTD., priority 2021, published 2025).
